Assay results from PMC6804253, “Predicting and Experimentally Validating Hot-Spot Residues at Protein–Protein Interfaces” (ACS Chemical Biology, 2019).
Like-named read-outs stand apart in the source and are kept apart here.

B1: 1DAN LU133A (protein, UniProt P13726 33-251, looked up, variant L133A)
extracellular domain: SGTTNTVAAYNLTWKSTNFKTILEWEPKPVNQVYTVQISTKSGDWKSKCFYTTDTECDLTDEIVKDVKQTYLARVFSYPAGNVESTGSAGEPLYENSPEFTPYLETNLGQPTIQSFEQVGTKVNVTVEDERTAVRRNNTFLSLRDVFGKDLIYTLYYWKSSSSGKKTAKTNTNEFLIDVDKGENYCFSVQAVIPSRTVNRKSTDSPVECMGQEKGEFRE
modifications: extracellular domain
B2: 1DAN FU140A (protein, UniProt P13726 33-251, looked up, variant F140A)
extracellular domain: SGTTNTVAAYNLTWKSTNFKTILEWEPKPVNQVYTVQISTKSGDWKSKCFYTTDTECDLTDEIVKDVKQTYLARVFSYPAGNVESTGSAGEPLYENSPEFTPYLETNLGQPTIQSFEQVGTKVNVTVEDERTLVRRNNTALSLRDVFGKDLIYTLYYWKSSSSGKKTAKTNTNEFLIDVDKGENYCFSVQAVIPSRTVNRKSTDSPVECMGQEKGEFRE
modifications: extracellular domain
B3: 1DAN VU146A (protein, UniProt P13726 33-251, looked up, variant V146A)
extracellular domain: SGTTNTVAAYNLTWKSTNFKTILEWEPKPVNQVYTVQISTKSGDWKSKCFYTTDTECDLTDEIVKDVKQTYLARVFSYPAGNVESTGSAGEPLYENSPEFTPYLETNLGQPTIQSFEQVGTKVNVTVEDERTLVRRNNTFLSLRDAFGKDLIYTLYYWKSSSSGKKTAKTNTNEFLIDVDKGENYCFSVQAVIPSRTVNRKSTDSPVECMGQEKGEFRE
modifications: extracellular domain
B4: 1DAN IU152A (protein, UniProt P13726 33-251, looked up, variant I152A)
extracellular domain: SGTTNTVAAYNLTWKSTNFKTILEWEPKPVNQVYTVQISTKSGDWKSKCFYTTDTECDLTDEIVKDVKQTYLARVFSYPAGNVESTGSAGEPLYENSPEFTPYLETNLGQPTIQSFEQVGTKVNVTVEDERTLVRRNNTFLSLRDVFGKDLAYTLYYWKSSSSGKKTAKTNTNEFLIDVDKGENYCFSVQAVIPSRTVNRKSTDSPVECMGQEKGEFRE
modifications: extracellular domain
B5: 1DAN YU157A (protein, UniProt P13726 33-251, looked up, variant Y157A)
extracellular domain: SGTTNTVAAYNLTWKSTNFKTILEWEPKPVNQVYTVQISTKSGDWKSKCFYTTDTECDLTDEIVKDVKQTYLARVFSYPAGNVESTGSAGEPLYENSPEFTPYLETNLGQPTIQSFEQVGTKVNVTVEDERTLVRRNNTFLSLRDVFGKDLIYTLYAWKSSSSGKKTAKTNTNEFLIDVDKGENYCFSVQAVIPSRTVNRKSTDSPVECMGQEKGEFRE
modifications: extracellular domain
B6: 1DAN VU179A (protein, UniProt P13726 33-251, looked up, variant V179A)
extracellular domain: SGTTNTVAAYNLTWKSTNFKTILEWEPKPVNQVYTVQISTKSGDWKSKCFYTTDTECDLTDEIVKDVKQTYLARVFSYPAGNVESTGSAGEPLYENSPEFTPYLETNLGQPTIQSFEQVGTKVNVTVEDERTLVRRNNTFLSLRDVFGKDLIYTLYYWKSSSSGKKTAKTNTNEFLIDADKGENYCFSVQAVIPSRTVNRKSTDSPVECMGQEKGEFRE
modifications: extracellular domain
B7: 1DAN VU198A (protein, UniProt P13726 33-251, looked up, variant V198A)
extracellular domain: SGTTNTVAAYNLTWKSTNFKTILEWEPKPVNQVYTVQISTKSGDWKSKCFYTTDTECDLTDEIVKDVKQTYLARVFSYPAGNVESTGSAGEPLYENSPEFTPYLETNLGQPTIQSFEQVGTKVNVTVEDERTLVRRNNTFLSLRDVFGKDLIYTLYYWKSSSSGKKTAKTNTNEFLIDVDKGENYCFSVQAVIPSRTANRKSTDSPVECMGQEKGEFRE
modifications: extracellular domain
B8: 1DAN VU207A (protein, UniProt P13726 33-251, looked up, variant V207A)
extracellular domain: SGTTNTVAAYNLTWKSTNFKTILEWEPKPVNQVYTVQISTKSGDWKSKCFYTTDTECDLTDEIVKDVKQTYLARVFSYPAGNVESTGSAGEPLYENSPEFTPYLETNLGQPTIQSFEQVGTKVNVTVEDERTLVRRNNTFLSLRDVFGKDLIYTLYYWKSSSSGKKTAKTNTNEFLIDVDKGENYCFSVQAVIPSRTVNRKSTDSPAECMGQEKGEFRE
modifications: extracellular domain
B9: 1DFJ WI257A (protein, UniProt P10775 1-456, looked up, variant W257A)
Ribonuclease inhibitor: MNLDIHCEQLSDARWTELLPLLQQYEVVRLDDCGLTEEHCKDIGSALRANPSLTELCLRTNELGDAGVHLVLQGLQSPTCKIQKLSLQNCSLTEAGCGVLPSTLRSLPTLRELHLSDNPLGDAGLRLLCEGLLDPQCHLEKLQLEYCRLTAASCEPLASVLRATRALKELTVSNNDIGEAGARVLGQGLADSACQLETLRLENCGLTPANCKDLCGIVASQASLRELDLGSNGLGDAGIAELCPGLLSPASRLKTLALWECDITASGCRDLCRVLQAKETLKELSLAGNKLGDEGARLLCESLLQPGCQLESLWVKSCSLTAACCQHVSLMLTQNKHLLELQLSSNKLGDSGIQELCQALSQPGTTLRVLCLGDCEVTNSGCSSLASLLLANRSLRELDLSNNCVGDPGVLQLLGSLEQPGCALEQLVLYDTYWTEEVEDRLQALEGSKPGLRVIS
B10: 1DFJ YI430A (protein, UniProt P10775 1-456, looked up, variant Y430A)
Ribonuclease inhibitor: MNLDIHCEQLSDARWTELLPLLQQYEVVRLDDCGLTEEHCKDIGSALRANPSLTELCLRTNELGDAGVHLVLQGLQSPTCKIQKLSLQNCSLTEAGCGVLPSTLRSLPTLRELHLSDNPLGDAGLRLLCEGLLDPQCHLEKLQLEYCRLTAASCEPLASVLRATRALKELTVSNNDIGEAGARVLGQGLADSACQLETLRLENCGLTPANCKDLCGIVASQASLRELDLGSNGLGDAGIAELCPGLLSPASRLKTLWLWECDITASGCRDLCRVLQAKETLKELSLAGNKLGDEGARLLCESLLQPGCQLESLWVKSCSLTAACCQHVSLMLTQNKHLLELQLSSNKLGDSGIQELCQALSQPGTTLRVLCLGDCEVTNSGCSSLASLLLANRSLRELDLSNNCVGDPGVLQLLGSLEQPGCALEQLVLADTYWTEEVEDRLQALEGSKPGLRVIS
B11: 1DFJ YI433A (protein, UniProt P10775 1-456, looked up, variant Y433A)
Ribonuclease inhibitor: MNLDIHCEQLSDARWTELLPLLQQYEVVRLDDCGLTEEHCKDIGSALRANPSLTELCLRTNELGDAGVHLVLQGLQSPTCKIQKLSLQNCSLTEAGCGVLPSTLRSLPTLRELHLSDNPLGDAGLRLLCEGLLDPQCHLEKLQLEYCRLTAASCEPLASVLRATRALKELTVSNNDIGEAGARVLGQGLADSACQLETLRLENCGLTPANCKDLCGIVASQASLRELDLGSNGLGDAGIAELCPGLLSPASRLKTLWLWECDITASGCRDLCRVLQAKETLKELSLAGNKLGDEGARLLCESLLQPGCQLESLWVKSCSLTAACCQHVSLMLTQNKHLLELQLSSNKLGDSGIQELCQALSQPGTTLRVLCLGDCEVTNSGCSSLASLLLANRSLRELDLSNNCVGDPGVLQLLGSLEQPGCALEQLVLYDTAWTEEVEDRLQALEGSKPGLRVIS
B12: 1DFJ II455A (protein, UniProt P10775 1-456, looked up, variant I455A)
Ribonuclease inhibitor: MNLDIHCEQLSDARWTELLPLLQQYEVVRLDDCGLTEEHCKDIGSALRANPSLTELCLRTNELGDAGVHLVLQGLQSPTCKIQKLSLQNCSLTEAGCGVLPSTLRSLPTLRELHLSDNPLGDAGLRLLCEGLLDPQCHLEKLQLEYCRLTAASCEPLASVLRATRALKELTVSNNDIGEAGARVLGQGLADSACQLETLRLENCGLTPANCKDLCGIVASQASLRELDLGSNGLGDAGIAELCPGLLSPASRLKTLWLWECDITASGCRDLCRVLQAKETLKELSLAGNKLGDEGARLLCESLLQPGCQLESLWVKSCSLTAACCQHVSLMLTQNKHLLELQLSSNKLGDSGIQELCQALSQPGTTLRVLCLGDCEVTNSGCSSLASLLLANRSLRELDLSNNCVGDPGVLQLLGSLEQPGCALEQLVLYDTYWTEEVEDRLQALEGSKPGLRVAS
B13: 1EMV LA33A (protein, UniProt P13479 1-86, looked up, variant L33A)
Colicin-E9 immunity protein: MELKHSISDYTEAEFLQLVTTICNADTSSEEEAVKLVTHFEEMTEHPSGSDLIYYPKEGDDDSPSGIVNTVKQWRAANGKSGFKQG
B14: 1EMV VA34A (protein, UniProt P13479 1-86, looked up, variant V34A)
Colicin-E9 immunity protein: MELKHSISDYTEAEFLQLVTTICNADTSSEEELAKLVTHFEEMTEHPSGSDLIYYPKEGDDDSPSGIVNTVKQWRAANGKSGFKQG
B15: 1EMV IA53A (protein, UniProt P13479 1-86, looked up, variant I53A)
Colicin-E9 immunity protein: MELKHSISDYTEAEFLQLVTTICNADTSSEEELVKLVTHFEEMTEHPSGSDLAYYPKEGDDDSPSGIVNTVKQWRAANGKSGFKQG
B16: 1EMV YA54A (protein, UniProt P13479 1-86, looked up, variant Y54A)
Colicin-E9 immunity protein: MELKHSISDYTEAEFLQLVTTICNADTSSEEELVKLVTHFEEMTEHPSGSDLIAYPKEGDDDSPSGIVNTVKQWRAANGKSGFKQG

Columns and labels:
[1] = test system: PPIs of the SKEMPI data set (by PDBID); test: SKEMPI experimental ΔΔG, single mutations to alanine; format: binding; conditions: for sk_class: class of the SKEMPI experimental ΔΔG; for sk_class (class of SKEMPI experimental ΔΔG): class by ΔΔG threshold 4.184 kJ/mol, ref SKEMPI
[2] = test system: PPIs of the SKEMPI data set (by PDBID); conditions: single mutation to alanine, sheet sortedByGroup, r_group FAMILYVW, ref SKEMPI, cited from earlier work

Row | Molecule | sk_class [1] | sk_ddG_kJ (SKEMPI experimental ΔΔG) [2] | sk_class (class of SKEMPI experimental ΔΔG) [1] | sk_ddG_kJ (SKEMPI experimental ΔΔG) ([2]; PPI given by PDBID)
1 | B1 | Neutral (neutral (little effect) 4.184 kJ/mol < ΔΔG > −4.184 kJ/mol) | -0.08 kJ |  | 
2 | B2 | Positive (positive (a hot residue) ΔΔG ≥ 4.184 kJ/mol) | 5.40 kJ |  | 
3 | B3 | Neutral (neutral (little effect) 4.184 kJ/mol < ΔΔG > −4.184 kJ/mol) | 0.84 kJ |  | 
4 | B4 | Neutral (neutral (little effect) 4.184 kJ/mol < ΔΔG > −4.184 kJ/mol) | 0.75 kJ |  | 
5 | B5 | Neutral (neutral (little effect) 4.184 kJ/mol < ΔΔG > −4.184 kJ/mol) | 0.00 kJ |  | 
6 | B6 | Neutral (neutral (little effect) 4.184 kJ/mol < ΔΔG > −4.184 kJ/mol) | 0.46 kJ |  | 
7 | B7 | Neutral (neutral (little effect) 4.184 kJ/mol < ΔΔG > −4.184 kJ/mol) | 0.46 kJ |  | 
8 | B8 | Positive (positive (a hot residue) ΔΔG ≥ 4.184 kJ/mol) | 6.57 kJ |  | 
9 | B9 | Positive (positive (a hot residue) ΔΔG ≥ 4.184 kJ/mol) | 5.56 kJ |  | 
10 | B10 | Positive (positive (a hot residue) ΔΔG ≥ 4.184 kJ/mol) | 24.89 kJ |  | 
11 | B11 | Positive (positive (a hot residue) ΔΔG ≥ 4.184 kJ/mol) | 10.96 kJ |  | 
12 | B12 | Neutral (neutral (little effect) 4.184 kJ/mol < ΔΔG > −4.184 kJ/mol) | 1.38 kJ |  | 
13 | B13 |  |  | Positive (positive (a hot residue) ΔΔG ≥ 4.184 kJ/mol) | 14.31 kJ
14 | B14 |  |  | Positive (positive (a hot residue) ΔΔG ≥ 4.184 kJ/mol) | 10.79 kJ
15 | B15 |  |  | Neutral (neutral (little effect) 4.184 kJ/mol < ΔΔG > −4.184 kJ/mol) | 3.56 kJ
16 | B16 |  |  | Positive (positive (a hot residue) ΔΔG ≥ 4.184 kJ/mol) | 20.21 kJ
